In article PMC9913818:
Values belong to the substance of their own block, whether it stands above or below them.

How the values were obtained:
Abl2 = Abl2 (UniProt P42684); test: co-immunoprecipitation with anti-Abl2; details: reference: vehicle (DMSO) treated cells; sites Y1510
Abl1 SH2 domain [1] = target: Abl1 SH2 domain (UniProt P00519); test: GST pull-down from cell lysate; details: reference: vehicle (DMSO) treated cells; sites Y1510
Abl2 SH2 domain [2] = target: Abl2 SH2 domain (UniProt P42684); test: GST pull-down from cell lysate; details: reference: vehicle (DMSO) treated cells; sites Y1510
Abl1 = Abl1 (UniProt P00519); test: co-immunoprecipitation with anti-Abl1; details: reference: vehicle (DMSO) treated cells; sites Y1510
[3] = target: endogenous Abl2 (H1993 cells) (human (endogenous in H1993)) (UniProt P42684); test: co-IP; endogenous proteins from H1993 cell lysates (Buffer A: 50 mM Tris-HCl pH 7.4, 150 mM NaCl, 1% Triton X-100); IP with anti-MET, anti-IQGAP1, anti-Abl1 or anti-Abl2, controls IgG or non-immune rabbit serum; for the Abl IPs cells also treated with 100 nM crizotinib or DMSO for 24 h
[4] = target: endogenous Abl1 (H1993 cells) (human (endogenous in H1993)) (UniProt P00519); test: as above
[5] = target: GST-tagged SH2 domain of Abl1 (human) (UniProt P00519); test: pull-down; GST-SH2 domains of Abl1 or Abl2, or GST, on glutathione-Sepharose, incubated with H1993 cell lysates for 3 h at 4 °C in Buffer A; cells treated with 100 nM crizotinib or DMSO for 24 h; Western blot for IQGAP1
[6] = target: GST-tagged SH2 domain of Abl2 (human) (UniProt P42684); test: as above
Abl1 SH2 domain [7] = target: Abl1 SH2 domain (UniProt P00519); test: SH2 domain microarray probed with fluorescent peptide; details: reference: unphosphorylated Tyr1510 peptide; sites Y1510
Abl2 SH2 domain [8] = target: Abl2 SH2 domain (UniProt P42684); test: as above; details: reference: unphosphorylated Tyr1510 peptide; sites Y1510
[9] = target: GST-tagged SH2 domain of Abl1 (human) (UniProt P00519); test: peptide or protein array; GST-tagged SH2 domains of 124 proteins and GST alone spotted in duplicate on nitrocellulose-coated slides; biotinylated IQGAP1 peptides on streptavidin-Cy3 as probes, 16 h at 4 °C in PBS-Tween with 3% milk and 3% BSA; fluorescence read
[10] = target: GST-tagged SH2 domain of Abl2 (human) (UniProt P42684); test: as above

other: percent decrease vs vehicle (Abl2): 75% | other: percent decrease vs vehicle (Abl1 SH2 domain [1]): 82% | other: percent decrease vs vehicle (Abl2 SH2 domain [2]): 92% | other: percent decrease vs vehicle (Abl1): 84%
Substance: IQGAP1 (from UniProt P46940) 100 nM crizotinib (MET inhibitor), 24 h

percent decrease of co-immunoprecipitated IQGAP1 after crizotinib against DMSO [3]: 75% | percent decrease of co-immunoprecipitated IQGAP1 after crizotinib against DMSO [4]: 84% | percent less IQGAP1 pulled down after crizotinib against DMSO [5]: 82% | percent less IQGAP1 pulled down after crizotinib against DMSO [6]: 92%
Substance: endogenous IQGAP1 (H1993 cells) (from UniProt P46940 1-1657) (natural protein)

other: array signal as percent of phosphopeptide signal (Abl1 SH2 domain [7]): gained; reference less than 0.5 | other: array signal as percent of phosphopeptide signal (Abl2 SH2 domain [8]): gained; reference less than 0.5
Substance: IQGAP1 1502-1518 (from UniProt P46940) pTyr1510 peptide

percent of the binding of the tyrosine-phosphorylated peptide (array fluorescence) [9]: < 0.5% | percent of the binding of the tyrosine-phosphorylated peptide (array fluorescence) [10]: < 0.5%
Substance: biotinylated IQGAP1 peptide (amino acids 1502 to 1518) with non-phosphorylated Tyr1510 (from UniProt P46940 1502-1518)
